Data: patent publication US20230124851A1 (INHIBRX LNC, published 2023)

T1: human B7H3 (CD276) on the cell surface (human, UniProt Q5ZPR3 29-534)
T1 construct: B7H3 on A375 and other B7H3-positive or transfected cells
T1 sequence: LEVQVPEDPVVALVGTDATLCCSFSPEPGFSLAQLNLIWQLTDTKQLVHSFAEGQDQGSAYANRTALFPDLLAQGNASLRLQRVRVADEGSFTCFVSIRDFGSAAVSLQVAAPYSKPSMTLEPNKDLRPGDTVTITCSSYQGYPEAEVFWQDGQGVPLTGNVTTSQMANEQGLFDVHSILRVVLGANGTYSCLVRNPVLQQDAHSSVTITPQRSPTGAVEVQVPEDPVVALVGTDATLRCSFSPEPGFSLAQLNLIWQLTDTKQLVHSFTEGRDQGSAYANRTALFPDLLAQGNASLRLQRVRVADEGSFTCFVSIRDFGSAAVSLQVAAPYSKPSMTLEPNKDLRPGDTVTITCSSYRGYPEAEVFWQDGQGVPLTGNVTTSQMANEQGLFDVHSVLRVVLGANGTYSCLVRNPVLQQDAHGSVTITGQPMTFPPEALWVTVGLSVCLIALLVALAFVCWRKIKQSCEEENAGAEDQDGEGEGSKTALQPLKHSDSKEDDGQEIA

B1: cx5952 (bispecific antibody)
chain 1: EVQLVESGGGEVQPGGSLRLSCAASGFSFSSNVMMWVRQAPGKGLEWVSTIYSSGTGTFYAESVKGRFTISRDNAKNTLYLQMSSLRPEDTAVYYCATSGPVRGWGPRSQGTLVTVKPPGGGGDKTHTCPPCPAPGGPSVFLFPPKPKDTLMISRTPEVTCVVVDVSHEDPEVKFNWYVDGVEVHNAKTKPREEQYNSTYRVVSVLTVLHQDWLNGKEYKCKVSNKALPAPIEKTISKAKGQPREPQVYTLPPCRDELTKNQVSLWCLVKGFYPSDIAVEWESNGQPENNYKTTPPVLDSDGSFFLYSKLTVDKSRWQQGNVFSCSVMHEALHNHYTQKSLSLSPGGGGGGSGGGGGSGGGGGSEVQLVESGGGLVQPGGSLRLSCAASGFTFNTYAMNWVRQAPGKCLEWVARIRSKYNNYATYYADSVKGRFTISRDDAKNTLYLQMSSLRAEDTAVYYCVRHGNFGNSYVSWFAYWGQGTLVTVKPGGGGEVQLVESGGGEVQPGGSLRLSCAASGFTFSSYHMSWFRQAPGKQRELVATSHHGGTTNYAGSVKGRFTISRDNAKNTVYLQMNTLRAEDTAVYYCKADHGYQGRGYWGQGTLVTVKP
chain 2: DKTHTCPPCPAPGGPSVFLFPPKPKDTLMISRTPEVTCVVVDVSHEDPEVKFNWYVDGVEVHNAKTKPREEQYNSTYRVVSVLTVLHQDWLNGKEYKCKVSNKALPAPIEKTISKAKGQPREPQVCTLPPSRDELTKNQVSLSCAVKGFYPSDIAVEWESNGQPENNYKTTPPVLDSDGSFFLVSKLTVDKSRWQQGNVFSCSVMHEALHNRYTQKSLSLSPGGGGGGSGGGGGSGGGGGSQAVVTQEPSLTVSPGGTVTLTCGSSTGAVTTSNYANWVQQKPGQAFRGLIGGTNKRAPGVPARFSGSLLGGKAALTISGAQPEDEADYYCALWYSNHWVFGCGTKLEIK
notes: also called sdAb-Fc-dsFV-sdAb
B2: cx6079 (bispecific antibody)
chain 1: EVQLVESGGGEVQPGGSLRLSCAASGFSFSSNVMMWVRQAPGKGLEWVSTIYSSGTGTFYAESVKGRFTISRDNAKNTLYLQMSSLRPEDTAVYYCATSGPVRGWGPRSQGTLVTVKPPGGGGDKTHTCPPCPAPPVAGPSVFLFPPKPKDTLMISRTPEVTCVVVDVKHEDPEVKFNWYVDGVEVHNAKTKPREEEYNSTYRVVSVLTVLHQDWLNGKEYKCKVSNKALPAPIEKTISKAKGQPREPQVYTLPPSREEMTKNQVSLTCDVSGFYPSDIAVEWESDGQPENNYKTTPPVLDSDGSFFLYSKLTVDKSRWEQGDVFSCSVMHEALHNHYTQKSLSLSPGKGGGGSGGGGSGGGGSEVQLVESGGGLVQPGGSLRLSCAASGFTFSTYAMNWVRQAPGKGLEWVGRIRSKYNNYATYYADSVKGRFTISRDDSKNTLYLQMNSLRAEDTAVYYCVRHGNFGDSYVSWFAYWGQGTLVTVSS
chain 2: EVQLVESGGGEVQPGGSLRLSCAASGFSFSSNVMMWVRQAPGKGLEWVSTIYSSGTGTFYAESVKGRFTISRDNAKNTLYLQMSSLRPEDTAVYYCATSGPVRGWGPRSQGTLVTVKPPGGGGDKTHTCPPCPAPPVAGPSVFLFPPKPKDTLMISRTPEVTCVVVDVKHEDPEVKFNWYVDGVEVHNAKTKPREEQYNSTYRVVSVLTVLHQDWLNGKEYKCKVSNKALPAPIEKTISKAKGQPREPQVYTLPPSREQMTKNQVKLTCLVKGFYPSDIAVEWESNGQPENNYKTTPPVLDSDGSFFLYSKLTVDKSRWQQGNVFSCSVMHEALHNHYTQKSLSLSPGKGGGGSGGGGSGGGGSQAVVTQEPSLTVSPGGTVTLTCGSSTGAVTTSNYANWVQQKPGKSPRGLIGGTNKRAPGVPARFSGSLLGGKAALTISGAQPEDEADYYCALWYSNHWVFGGGTKLTVL
notes: also called sdAb-Fc-FV
B3: cx6081 (bispecific antibody)
chain 1: EVQLVESGGGEVQPGGSLRLSCAASGFSFSSNVMMWVRQAPGKGLEWVSTIYSSGTGTFYAESVKGRFTISRDNAKNTLYLQMSSLRPEDTAVYYCATSGPVRGWGPRSQGTLVTVKPPGGGGDKTHTCPPCPAPPVAGPSVFLFPPKPKDTLMISRTPEVTCVVVDVKHEDPEVKFNWYVDGVEVHNAKTKPREEEYNSTYRVVSVLTVLHQDWLNGKEYKCKVSNKALPAPIEKTISKAKGQPREPQVYTLPPSREEMTKNQVSLTCDVSGFYPSDIAVEWESDGQPENNYKTTPPVLDSDGSFFLYSKLTVDKSRWEQGDVFSCSVMHEALHNHYTQKSLSLSPGKGGGGSGGGGSGGGGSEVQLVESGGGLVQPGGSLRLSCAASGFTFNTYAMNWVRQAPGKCLEWVARIRSKYNNYATYYADSVKGRFTISRDDAKNTLYLQMSSLRAEDTAVYYCVRHGNFGNSYVSWFAYWGQGTLVTVKP
chain 2: EVQLVESGGGEVQPGGSLRLSCAASGFSFSSNVMMWVRQAPGKGLEWVSTIYSSGTGTFYAESVKGRFTISRDNAKNTLYLQMSSLRPEDTAVYYCATSGPVRGWGPRSQGTLVTVKPPGGGGDKTHTCPPCPAPPVAGPSVFLFPPKPKDTLMISRTPEVTCVVVDVKHEDPEVKFNWYVDGVEVHNAKTKPREEQYNSTYRVVSVLTVLHQDWLNGKEYKCKVSNKALPAPIEKTISKAKGQPREPQVYTLPPSREQMTKNQVKLTCLVKGFYPSDIAVEWESNGQPENNYKTTPPVLDSDGSFFLYSKLTVDKSRWQQGNVFSCSVMHEALHNHYTQKSLSLSPGKGGGGSGGGGSGGGGSQAVVTQEPSLTVSPGGTVTLTCGSSTGAVTTSNYANWVQQKPGQAFRGLIGGTNKRAPGVPARFSGSLLGGKAALTISGAQPEDEADYYCALWYSNHWVFGCGTKLEIK
notes: also called sdAb-Fc-dsFV
B4: cx6080 (bispecific antibody)
chain 1: EVQLVESGGGEVQPGGSLRLSCAASGFSFSSNVMMWVRQAPGKGLEWVSTIYSSGTGTFYAESVKGRFTISRDNAKNTLYLQMSSLRPEDTAVYYCATSGPVRGWGPRSQGTLVTVKPPGGGGDKTHTCPPCPAPPVAGPSVFLFPPKPKDTLMISRTPEVTCVVVDVKHEDPEVKFNWYVDGVEVHNAKTKPREEEYNSTYRVVSVLTVLHQDWLNGKEYKCKVSNKALPAPIEKTISKAKGQPREPQVYTLPPSREEMTKNQVSLTCDVSGFYPSDIAVEWESDGQPENNYKTTPPVLDSDGSFFLYSKLTVDKSRWEQGDVFSCSVMHEALHNHYTQKSLSLSPGKGGGGSGGGGSGGGGSEVQLVESGGGLVQPGGSLRLSCAASGFTFSTYAMNWVRQAPGKCLEWVGRIRSKYNNYATYYADSVKGRFTISRDDSKNTLYLQMNSLRAEDTAVYYCVRHGNFGDSYVSWFAYWGQGTLVTVSS
chain 2: EVQLVESGGGEVQPGGSLRLSCAASGFSFSSNVMMWVRQAPGKGLEWVSTIYSSGTGTFYAESVKGRFTISRDNAKNTLYLQMSSLRPEDTAVYYCATSGPVRGWGPRSQGTLVTVKPPGGGGDKTHTCPPCPAPPVAGPSVFLFPPKPKDTLMISRTPEVTCVVVDVKHEDPEVKFNWYVDGVEVHNAKTKPREEQYNSTYRVVSVLTVLHQDWLNGKEYKCKVSNKALPAPIEKTISKAKGQPREPQVYTLPPSREQMTKNQVKLTCLVKGFYPSDIAVEWESNGQPENNYKTTPPVLDSDGSFFLYSKLTVDKSRWQQGNVFSCSVMHEALHNHYTQKSLSLSPGKGGGGSGGGGSGGGGSQAVVTQEPSLTVSPGGTVTLTCGSSTGAVTTSNYANWVQQKPGKSPRGLIGGTNKRAPGVPARFSGSLLGGKAALTISGAQPEDEADYYCALWYSNHWVFGCGTKLTVL
notes: also called cs6080; sdAb-Fc-dsFV

Experiments:
[1] = molecular target: T1, human B7H3 (CD276) on the cell surface; experiment: flow cytometry on A375 cells (B7H3+), anti-human Fc secondary
Procedure: (§1) Binding of exemplary multispecific constructs containing an antigen-binding domain directed against B7H3 were assessed for binding to B7H3 positive A375 tumor cells or primary T-cells. The constructs were generated containing antigen-binding domain(s) that were either sdAbs or a FABs, and that were positioned either only N-terminal to the Fc or both N-terminal to the Fc and C-terminal to the anti-CD3 binding domain (see FIGS. 30A and 30C and Table E5). Among the various formats of constructs tested included: sdAb-Fc-dsFV-sdAb (cx3072, cx5952) sdAb-Fc-FV (cx6079), sdAb-Fc-dsFV (cs6080, cx6081), MAB-FV (cx5067) and MAB-dsFV (cx6083, cx6084), where the FV represents the anti-CD3 binding domain composed of VH and VL domain pairs and “ds” notes disulfide stabilized via an engineered interdomain disulfide bond.
(§2) Binding was assessed as described above via flow cytometry using a fluorophore-conjugated anti-human Fc secondary antibody. cx3072 bound to A375 cells with high affinity (FIG. 31A) but not to isolated T-cells (FIG. 31B). […] The B7H3 -targeting sdAb containing constructs (cx5952, cx6079, cx6080, and cx6081) bound to B7H3 positive cells with similar affinities (depicted in FIG. 31E), with cx5952 displaying higher maximal binding. cx6079, cx6080 and cx6081 contain two identical B7H3-targeting sdAbs, whereas cx5952, and cx3072 contain two distinct B7H3-targeting sdAb that bind different epitopes. The MAB-FV, cx5067, contains two identical B7H3-targeting FAB domains.

[2] = molecular target: T2, CD3 on the surface of human T cells (human, UniProt P07766 23-207); experiment: flow cytometry on primary human T cells, anti-human Fc secondary
T2 construct: whole, on cells; Part of the CD3/TCR complex on cells; also called CD3 epsilon
T2 sequence (P07766 23-207): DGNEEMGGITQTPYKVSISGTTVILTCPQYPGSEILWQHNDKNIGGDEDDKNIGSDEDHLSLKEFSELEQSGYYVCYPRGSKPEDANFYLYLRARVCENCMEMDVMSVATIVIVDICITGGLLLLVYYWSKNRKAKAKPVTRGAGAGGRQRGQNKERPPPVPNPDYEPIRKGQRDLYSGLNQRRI
Procedure: as §1, §2

Binder	binding result [1]	binding result [2]
B1	binds	no binding
B2	binds	no binding
B3	binds	no binding
B4	binds	no binding
